These results are taken from the Human Domainome abundance scans (Beltran et al. 2025).

± gives the uncertainty stated by the source.

First the molecules themselves.
B1: Formin-binding protein 4, residues 593 to 636; numbered along this chain, Q8N3X1 (parent)
chain: EINATPKGWSCHWDRDHRRYFYVNEQSGESQWEFPDGEEEEEES

The variants in this data set derive from B1. Kind of data set: abundance fitness (aPCA) (normalised: wild type 0, dead -1); higher = more abundant; growth selection in yeast, the domain comes from the species named. Particulars: Homo sapiens.
As to EINATPKGWSCHWDRDHRRYFYVNEQEGESQWEFPDGEEEEEES [S27E], the abundance fitness is -0.427 ± 0.091.
The same measure for EINATPKGWSCHWDRDHRRYFYVNEQAGESQWEFPDGEEEEEES [S27A]: -0.611 ± 0.08; for EINATPKGWSCHWDRDHRRYFYVNEQNGESQWEFPDGEEEEEES [S27N]: -0.453 ± 0.47.
To EINATPKGWSCHWDRDHRRYFYVNEQCGESQWEFPDGEEEEEES [S27C] belongs -0.681 ± 0.28; to EINATPKGWSCHWDRDHRRYFYVNEQKGESQWEFPDGEEEEEES [S27K], -0.485 ± 0.18.
For the variant EINATPKGWSCHWDRDHRRYFYVNEQFGESQWEFPDGEEEEEES [S27F], the abundance fitness is -0.988 ± 0.17.
Turning to EINATPKGWSCHWDRDHRRYFYVNEQMGESQWEFPDGEEEEEES [S27M], the abundance fitness was -0.641 ± 0.12.
The same measure for EINATPKGWSCHWDRDHRRYFYVNEQSGESRWEFPDGEEEEEES [Q31R]: -0.075 ± 0.059; for EINATPKGWSCHWDRDHRRYFYVNEQSGESFWEFPDGEEEEEES [Q31F]: -0.416 ± 0.082; for EINATPKGWSCHWDRDHRRYFYVNEQSGESSWEFPDGEEEEEES [Q31S]: -0.293 ± 0.087.
Regarding EINATPKGWSCHWDRDHRRYFYVNEQSGESKWEFPDGEEEEEES [Q31K], the abundance fitness was -0.32 ± 0.11.
To EINATPKGWSCHWDRDHRRYFYVNEQSGESHWEFPDGEEEEEES [Q31H] belongs -0.47 ± 0.087; to EINATPKGWSCHWDRDHRRYFYVNEQSGESIWEFPDGEEEEEES [Q31I], -0.472 ± 0.1.
On to EINATPKGWSCHWDRDHRRYFYVNEQSGESEWEFPDGEEEEEES [Q31E], for which the abundance fitness is -0.707 ± 0.081.
Regarding EINATPKGWSCHWDRDHRRYFYVNEQSGESPWEFPDGEEEEEES [Q31P], the abundance fitness is -0.819 ± 0.18.
On to EINATPKGWSCHWDRDHRRYFYVNEQSGESMWEFPDGEEEEEES [Q31M], for which the abundance fitness was -0.451 ± 0.12.
For the variant EINATPKGWSCHWDRDHRRYFYVNEQSGESVWEFPDGEEEEEES [Q31V], the abundance fitness was -0.153 ± 0.061.
For EINATPKGWSCHWDRDHRRYFYVNEQSGESAWEFPDGEEEEEES [Q31A], the abundance fitness is -0.377 ± 0.065.
To EINATPKGWSCHWDRDHRRYFYVNEQSGESCWEFPDGEEEEEES [Q31C] belongs -0.129 ± 0.093; to EINATPKGWSCHWDRDHRRYFYVNEQSGESNWEFPDGEEEEEES [Q31N], -0.742 ± 0.33; to EINATPKGWSCHWDRDHRRYFYVNEQSGESLWEFPDGEEEEEES [Q31L], -0.383 ± 0.07.
For EINATPKGWSCHWDRDHRRYFYVNEQSGESTWEFPDGEEEEEES [Q31T], the abundance fitness is -0.115 ± 0.078.
As for EINATPKGWSCHWDRDHRRYFYVNEQSGESWWEFPDGEEEEEES [Q31W], the abundance fitness is -0.613 ± 0.062.
Consider EINATPKGWSCHWDRDHRRYFYVNEQSGESQEEFPDGEEEEEES [W32E], for which the abundance fitness was -0.273 ± 0.086.
The same measure for EINATPKGWSCHWDRDHRRYFYVNEQSGESQCEFPDGEEEEEES [W32C]: -0.305 ± 0.11; for EINATPKGWSCHWDRDHRRYFYVNEQSGESQIEFPDGEEEEEES [W32I]: 0.001 ± 0.13; for EINATPKGWSCHWDRDHRRYFYVNEQSGESQGEFPDGEEEEEES [W32G]: -0.28 ± 0.061.
EINATPKGWSCHWDRDHRRYFYVNEQSGESQFEFPDGEEEEEES [W32F]: the abundance fitness was 0.047 ± 0.15.
The same measure for EINATPKGWSCHWDRDHRRYFYVNEQSGESQHEFPDGEEEEEES [W32H]: -0.157 ± 0.25.
EINATPKGWSCHWDRDHRRYFYVNEQSGESQAEFPDGEEEEEES [W32A]: the abundance fitness is -0.226 ± 0.079.
As for EINATPKGWSCHWDRDHRRYFYVNEQSGESQDEFPDGEEEEEES [W32D], the abundance fitness is -0.364 ± 0.14.
To EINATPKGWSCHWDRDHRRYFYVNETSGESQWEFPDGEEEEEES [Q26T] belongs -0.104 ± 0.12; to EINATPKGWSCHWDRDHRRYFYVNELSGESQWEFPDGEEEEEES [Q26L], -0.137 ± 0.083.
To EINATPKGWSCHWDRDHRRYFYVNEASGESQWEFPDGEEEEEES [Q26A] belongs 0.017 ± 0.071; to EINATPKGWSCHWDRDHRRYFYVNESSGESQWEFPDGEEEEEES [Q26S], -0.071 ± 0.081; to EINATPKGWSCHWDRDHRRYFYVNEMSGESQWEFPDGEEEEEES [Q26M], -0.242 ± 0.18.
In the case of EINATPKGWSCHWDRDHRRYFYVNEGSGESQWEFPDGEEEEEES [Q26G], the abundance fitness is -0.199 ± 0.063.
With EINATPKGWSCHWDRDHRRYFYVNEVSGESQWEFPDGEEEEEES [Q26V], the abundance fitness was -0.19 ± 0.099.
On to EINATPKGWSCHWDRDHRRYFYVNEPSGESQWEFPDGEEEEEES [Q26P], for which the abundance fitness was -1.06 ± 0.24.
For EINATPKGWSCHWDRDHRRYFYVNEKSGESQWEFPDGEEEEEES [Q26K], the abundance fitness was 0.18 ± 0.11.
Take EINATPKGWSCHWDRDHRRYFYVNERSGESQWEFPDGEEEEEES [Q26R]: the abundance fitness was -0.085 ± 0.067.
Regarding EINATPKGWSCHWDRDHRRYFYVNECSGESQWEFPDGEEEEEES [Q26C], the abundance fitness was found to be 0.133 ± 0.25.
Regarding EINATPKGWSCHWDRDHRRYFYVNEFSGESQWEFPDGEEEEEES [Q26F], the abundance fitness is -0.015 ± 0.29.
For EINATPKGWSCHWDRDHRRYFYVNEHSGESQWEFPDGEEEEEES [Q26H], the abundance fitness is -0.266 ± 0.2.
The same measure for EINATPKGWSCHWDRDHRRYFYVNEQSVESQWEFPDGEEEEEES [G28V]: -0.932 ± 0.085; for EINATPKGWSCHWDRDHRRYFYVNEQSMESQWEFPDGEEEEEES [G28M]: -0.611 ± 0.13; for EINATPKGWSCHWDRDHRRYFYVNEQSTESQWEFPDGEEEEEES [G28T]: -0.728 ± 0.079.
Consider EINATPKGWSCHWDRDHRRYFYVNEQSFESQWEFPDGEEEEEES [G28F], for which the abundance fitness is -1.22 ± 0.23.
The same measure for EINATPKGWSCHWDRDHRRYFYVNEQSCESQWEFPDGEEEEEES [G28C]: -0.61 ± 0.12; for EINATPKGWSCHWDRDHRRYFYVNEQSSESQWEFPDGEEEEEES [G28S]: -0.553 ± 0.075.
Take EINATPKGWSCHWDRDHRRYFYVNEQSAESQWEFPDGEEEEEES [G28A]: the abundance fitness was -0.567 ± 0.076.
On to EINATPKGWSCHWDRDHRRYFYVNEQSLESQWEFPDGEEEEEES [G28L], for which the abundance fitness was -0.363 ± 0.071.
With EINATPKGWSCHWDRDHRRYFYVNEQSEESQWEFPDGEEEEEES [G28E], the abundance fitness is -0.702 ± 0.1.
As to EINATPKGWSCHWDRDHRRYFYVNEQSRESQWEFPDGEEEEEES [G28R], the abundance fitness was -0.438 ± 0.079.
Consider EINATPKGWSCHWDRDHRRYFYVNEQSWESQWEFPDGEEEEEES [G28W], for which the abundance fitness is -1.14 ± 0.12.
As for EINATPKGWSCHWDRDHRRYFYVNEQSQESQWEFPDGEEEEEES [G28Q], the abundance fitness is -0.337 ± 0.11.
With EINATPKGWSCHWDRDHRRYFYVNEQSKESQWEFPDGEEEEEES [G28K], the abundance fitness is -0.199 ± 0.2.
The same measure for EINATPKGWSCHWDRDHRRYFYVNEQSDESQWEFPDGEEEEEES [G28D]: -0.682 ± 0.11.
